Test results from paper PMC2172336 (The Journal of Cell Biology, 2004).
Like-named read-outs stand apart in the source and are kept apart here. One block for each binder: values may come before it.

B1: Fus3 (wild type), in vitro translated, 35S-labelled (enzyme, S. cerevisiae, UniProt P16892 1-353, looked up)
chain: MPKRIVYNISSDFQLKSLLGEGAYGVVCSATHKPTGEIVAIKKIEPFDKPLFALRTLREIKILKHFKHENIITIFNIQRPDSFENFNEVYIIQELMQTDLHRVISTQMLSDDHIQYFIYQTLRAVKVLHGSNVIHRDLKPSNLLINSNCDLKVCDFGLARIIDESAADNSEPTGQQSGMTEYVATRWYRAPEVMLTSAKYSRAMDVWSCGCILAELFLRRPIFPGRDYRHQLLLIFGIIGTPHSDNDLRCIESPRAREYIKSLPMYPAAPLEKMFPRVNPKGIDLLQRMLVFDPAKRITAKEALEHPYLQTYHDPNDEPEGEPIPPSFFEFDHYKEALTTKDLKKLIWNEIFS
modifications: [35S]methionine label
B3: GST-Dig2_(98-114) (domain or fragment, S. cerevisiae, UniProt Q03373 98-114, looked up)
chain: SLKRKRVPPALNFSDIQ
B4: GST-Ste7_(1-98) (domain or fragment, S. cerevisiae, UniProt P06784 1-98, looked up)
chain: MFQRKTLQRRNLKGLNLNLHPDVGNNGQLQEKTETHQGQSRIEGHVMSNINAIQNNSNLFLRRGIKKKLTLDAFGDDQAISKPNTVVIQQPQNEPVLV
B5: GST-Ste5_(241-336) (domain or fragment, S. cerevisiae, UniProt P32917 241-336, looked up)
chain: PENDELKDILISDFLIHKIPDSELSITPQSRFPPYSPLLPPFGLSYTPVERQTIYSQAPSLNPNLILAAPPKERNQIPQKKSNYTFLHSPLGHRRI
B6: Kss1 (wild type), in vitro translated, 35S-labelled (enzyme, S. cerevisiae, UniProt P14681 1-368, looked up)
chain: MARTITFDIPSQYKLVDLIGEGAYGTVCSAIHKPSGIKVAIKKIQPFSKKLFVTRTIREIKLLRYFHEHENIISILDKVRPVSIDKLNAVYLVEELMETDLQKVINNQNSGFSTLSDDHVQYFTYQILRALKSIHSAQVIHRDIKPSNLLLNSNCDLKVCDFGLARCLASSSDSRETLVGFMTEYVATRWYRAPEIMLTFQEYTTAMDIWSCGCILAEMVSGKPLFPGRDYHHQLWLILEVLGTPSFEDFNQIKSKRAKEYIANLPMRPPLPWETVWSKTDLNPDMIDLLDKMLQFNPDKRISAAEALRHPYLAMYHDPSDEPEYPPLNLDDEFWKLDNKIMRPEEEEEVPIEMLKDMLYDELMKTME
modifications: [35S]methionine label

Tests used:
[1] = target: B5; test: pull-down
[2] = target: B4; test: pull-down
[3] = target: T1, GST-Dig1_(213-452) (S. cerevisiae, UniProt Q03063 213-452); test: pull-down
T1 sequence (looked up): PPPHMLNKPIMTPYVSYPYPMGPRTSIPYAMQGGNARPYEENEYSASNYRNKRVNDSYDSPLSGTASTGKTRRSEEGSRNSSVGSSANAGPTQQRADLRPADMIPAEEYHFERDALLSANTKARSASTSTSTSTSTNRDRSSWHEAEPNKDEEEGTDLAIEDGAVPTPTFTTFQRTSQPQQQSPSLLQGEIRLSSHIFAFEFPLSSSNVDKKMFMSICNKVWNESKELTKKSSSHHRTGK

[4] = target: T2, GST-Dig1_(93-111) (S. cerevisiae, UniProt Q03063 93-111); test: pull-down
T2 chain (looked up): KKSLKRGRVPAPLNLSDSN

[5] = target: B3; test: pull-down
[6] = target: B1; test: pull-down
[7] = target: B1; test: pull-down; remark: listed apart in the source
[8] = target: B6; test: pull-down
[9] = target: T3, Kss1-GBD (wild-type Kss1 fused to the Gal4 DNA-binding domain) (S. cerevisiae, UniProt P14681 1-368); test: two-hybrid
T3 sequence (looked up): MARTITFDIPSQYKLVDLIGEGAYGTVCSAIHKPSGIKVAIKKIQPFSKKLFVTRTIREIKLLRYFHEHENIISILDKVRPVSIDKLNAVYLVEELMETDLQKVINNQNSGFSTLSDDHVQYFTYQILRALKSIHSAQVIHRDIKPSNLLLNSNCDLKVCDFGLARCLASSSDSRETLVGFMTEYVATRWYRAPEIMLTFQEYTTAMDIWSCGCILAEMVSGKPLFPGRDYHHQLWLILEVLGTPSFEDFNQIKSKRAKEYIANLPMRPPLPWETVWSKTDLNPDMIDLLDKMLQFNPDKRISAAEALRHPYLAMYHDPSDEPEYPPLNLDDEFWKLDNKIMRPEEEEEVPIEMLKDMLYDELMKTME

[10] = target: B6; test: pull-down; remark: listed apart in the source

Binder: B1
percent of input bound [1]: 12.6 % of input
percent of input bound [2]: 14 % of input
percent of input bound [3]: 0.6 % of input
fold higher affinity than Kss1 for the same D-site [4]: ~17 fold
fold higher affinity than Kss1 for the same D-site [5]: ~17 fold
fold higher affinity than for the Dig1 D-site [5]: ~3 fold

Binder: B3
Kd [6]: ~1000 nM

Binder: B4
Kd [7]: ~100 nM
Kd [8]: ~100 nM

Binder: B5
Kd [7]: ~1000 nM
Kd [8]: ~6500 nM

Binder: B6
percent of input bound [1]: 3.7 % of input
percent of input bound [2]: 9 % of input
percent of input bound [3]: 1.3 % of input
fold higher affinity than for the Dig1 D-site [5]: ~3 fold

Continued, values first:

percent of wild-type binding [2]: < 1 % of wild-type
B2: Fus3-7m2 (D317N), in vitro translated, 35S-labelled (enzyme, S. cerevisiae, UniProt P16892 1-353, looked up)
chain: MPKRIVYNISSDFQLKSLLGEGAYGVVCSATHKPTGEIVAIKKIEPFDKPLFALRTLREIKILKHFKHENIITIFNIQRPDSFENFNEVYIIQELMQTDLHRVISTQMLSDDHIQYFIYQTLRAVKVLHGSNVIHRDLKPSNLLINSNCDLKVCDFGLARIIDESAADNSEPTGQQSGMTEYVATRWYRAPEVMLTSAKYSRAMDVWSCGCILAELFLRRPIFPGRDYRHQLLLIFGIIGTPHSDNDLRCIESPRAREYIKSLPMYPAAPLEKMFPRVNPKGIDLLQRMLVFDPAKRITAKEALEHPYLQTYHDPNNEPEGEPIPPSFFEFDHYKEALTTKDLKKLIWNEIFS
modifications: [35S]methionine label

fold above background (two-hybrid reporter) [9]: 3 fold
B7: full-length Dig1-GAD (natural protein, S. cerevisiae, UniProt Q03063 1-452, looked up)
chain: MAVSARLRTTAEDTSIAKSTQDPIGDTEISVANAKGSSDSNIKNSPGGNSVGQESELEHVPEEDDSGDKEADHEDSETATAKKRKAQPLKNPKKSLKRGRVPAPLNLSDSNTNTHGGNIKDGNLASSNSAHFPPVANQNVKSAPAQVTQHSKFQPRVQYLGKASSRQSIQVNNSSNSYGKPHMPSAGIMSAMNPYMPMNRYIMSPYYNPYGIPPPHMLNKPIMTPYVSYPYPMGPRTSIPYAMQGGNARPYEENEYSASNYRNKRVNDSYDSPLSGTASTGKTRRSEEGSRNSSVGSSANAGPTQQRADLRPADMIPAEEYHFERDALLSANTKARSASTSTSTSTSTNRDRSSWHEAEPNKDEEEGTDLAIEDGAVPTPTFTTFQRTSQPQQQSPSLLQGEIRLSSHIFAFEFPLSSSNVDKKMFMSICNKVWNESKELTKKSSSHHRTGK

fold above background (two-hybrid reporter) [9]: 23 fold
B8: full-length Dig2-GAD (natural protein, S. cerevisiae, UniProt Q03373 1-323, looked up)
chain: MNKEEQEDPQQEQISTVQENDPRNLQQLGMLLVSPGLDEDRLSEKMISKIKKSRDIEKNQKLLISRLSQKEEDHSGKPPTITTSPAEKTVPFKSLNHSLKRKRVPPALNFSDIQASSHLHGSKSAPPNITRFPQHKNSLRVRYMGRMAPTNQDYHPSVANSYMTATYPYPYTGLPPVPCYPYSSTPTQTHAYEGYYSPMYPGPLYNNGIIPADYHAKRKKLAGRSPHLEDLTSRKRTFVSKHHNGDPIISKTDEDIECSVTKNSLSEGASLNDDADDDNDKERIIIGEISLYDDVFKFEVRDDKNDYMKACETIWTEWHNLKK

fold above background (two-hybrid reporter) [9]: 4 fold
B9: Ste12-GAD (Ste12 fused to the Gal4 transcriptional activation domain) (natural protein, S. cerevisiae, UniProt P13574 1-688, looked up)
chain: MKVQITNSRTEEILKVQANNENDEVSKATPGEVEESLRLIGDLKFFLATAPVNWQENQIIRRYYLNSGQGFVSCVFWNNLYYITGTDIVKCCLYRMQKFGREVVQKKKFEEGIFSDLRNLKCGIDATLEQPKSEFLSFLFRNMCLKTQKKQKVFFWFSVAHDKLFADALERDLKRESLNQPSTTKPVNEPALSFSYDSSSDKPLYDQLLQHLDSRRPSSTTKSDNSPPKLESENFKDNELVTVTNQPLLGVGLMDDDAPESPSQINDFIPQKLIIEPNTLELNGLTEETPHDLPKNTAKGRDEEDFPLDYFPVSVEYPTEENAFDPFPPQAFTPAAPSMPISYDNVNERDSMPVNSLLNRYPYQLSVAPTFPVPPSSSRQHFMTNRDFYSSNNNKEKLVSPSDPTSYMKYDEPVMDFDESRPNENCTNAKSHNSGQQTKQHQLYSNNFQQSYPNGMVPGYYPKMPYNPMGGDPLLDQAFYGADDFFFPPEGCDNNMLYPQTATSWNVLPPQAMQPAPTYVGRPYTPNYRSTPGSAMFPYMQSSNSMQWNTAVSPYSSRAPSTTAKNYPPSTFYSQNINQYPRRRTVGMKSSQGNVPTGNKQSVGKSAKISKPLHIKTSAYQKQYKINLETKARPSAGDEDSAHPDKNKEISMPTPDSNTLVVQSEEGGAHSLEVDTNRRSDKNLPDAT

Kd [10]: ~2000 nM
B10: GST-Ste12_(298-473) (domain or fragment, S. cerevisiae, UniProt P13574 298-473, looked up)
chain: AKGRDEEDFPLDYFPVSVEYPTEENAFDPFPPQAFTPAAPSMPISYDNVNERDSMPVNSLLNRYPYQLSVAPTFPVPPSSSRQHFMTNRDFYSSNNNKEKLVSPSDPTSYMKYDEPVMDFDESRPNENCTNAKSHNSGQQTKQHQLYSNNFQQSYPNGMVPGYYPKMPYNPMGGDP
